Target: T1, recombinant NRF-1 (rNRF-1) (human, UniProt Q16656 1-503)
T1 sequence: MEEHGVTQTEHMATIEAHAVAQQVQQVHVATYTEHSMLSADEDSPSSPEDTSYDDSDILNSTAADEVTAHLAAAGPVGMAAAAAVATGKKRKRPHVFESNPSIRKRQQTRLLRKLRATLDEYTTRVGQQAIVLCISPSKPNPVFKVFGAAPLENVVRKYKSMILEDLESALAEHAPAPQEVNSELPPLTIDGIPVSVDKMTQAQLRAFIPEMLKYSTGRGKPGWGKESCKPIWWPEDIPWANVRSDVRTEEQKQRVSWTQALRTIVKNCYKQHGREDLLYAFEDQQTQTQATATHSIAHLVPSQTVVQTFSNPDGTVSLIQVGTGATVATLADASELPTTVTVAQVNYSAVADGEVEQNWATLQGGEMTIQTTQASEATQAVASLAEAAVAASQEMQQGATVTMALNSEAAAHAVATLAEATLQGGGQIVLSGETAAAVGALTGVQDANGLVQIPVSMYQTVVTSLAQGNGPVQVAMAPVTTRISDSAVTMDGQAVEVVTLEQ
Test: EMSA; 0.03-5 ug protein, concentration-dependent; 25 mM HEPES pH 7.6, 5 mM MgCl2, 34 mM KCl, 50 ug/mL poly dI:dC, 0.5 mg/mL BSA, on ice 15 min; 6% acrylamide 0.25x TBE gel
Conditions: tags: N-terminal MBP fusion (pMAL-c2), chain copies: 2, label: 32P

B1: Gb-270 (dsDNA)
DNA 1: CTGCCGCGCAGGCGCCGGGC
DNA 2: GCCCGGCGCCTGCGCGGCAG
B1: binds.
